From FireProtDB (doi:10.1529/biophysj.106.103804)

Settings: Bacillus licheniformis, CD, reversible: Yes
[1] = pH 6, Thermal, Sodium phosphate Sodium fluoride 25 mM 100 mM
[2] = pH 6.5, Thermal, Sodium phosphate Sodium fluoride 25 mM 100 mM
[3] = pH 7, 22 °C, Urea, Fluorescence, Thiol reactivity, Sodium phosphate 100 mM, transition: 3
[4] = pH 7, Thermal, Sodium phosphate Sodium fluoride 25 mM 100 mM
[5] = pH 7.5, Thermal, Sodium phosphate Sodium fluoride 25 mM 100 mM
[6] = pH 8, Thermal, Sodium phosphate Sodium fluoride 25 mM 100 mM

## MKLWFSTLKLKKAA [wild type]
[1]
  heat capacity change of unfolding: 3.9 kcal/mol/K
  unfolding enthalpy (van 't Hoff): 590 kJ/mol
  unfolding free energy: 30.1 kJ/mol
[2]
  Tm: 67.9 °C
  unfolding enthalpy (van 't Hoff): 615 kJ/mol
[3]
  denaturant midpoint (higher = more stable): 3 M
  unfolding free energy: 21.8 kJ/mol
[4]
  Tm: 67 °C
  unfolding enthalpy (van 't Hoff): 586 kJ/mol
[5]
  Tm: 66.5 °C
  unfolding enthalpy (van 't Hoff): 682 kJ/mol
[6]
  Tm: 65.1 °C
  unfolding enthalpy (van 't Hoff): 556 kJ/mol
